These results are taken from paper PMC3044595.

The experiment addresses BclA N-terminal 35 amino acids fused to eGFP (Bacillus anthracis) (UniProt Q81JD7). Briefly: FRET or BRET. On the technique in general: BRET reads energy transfer from a luciferase to a nearby fluorophore.

With “BxpB-mCherry fusion (from UniProt S5W424 1-167) (natural protein)”, the fold decrease of the eGFP signal (FRET), against BclA NTD-eGFP alone amounted to 2.1 fold and the percent of FRET positive spores worked out at 14.8%.
